Results taken from article PMC8773746.

Target: Human erythropoietin (Epoetin β) (human) (UniProt P01588)
Assay: SPR; EPO immobilised by amine coupling on a ProteOn GLH chip (up to 3 000 RU); S100 or CaM as analyte (0.25–4 μM); 25 °C; 10 mM HEPES, 150 mM NaCl, 0.05% TWEEN 20, pH 7.4, 1 mM CaCl2; heterogeneous ligand model, values averaged over analyte concentrations (n = 5)

Kd1 (heterogeneous ligand model, ligand population L1): 540 nM
Kd2 (heterogeneous ligand model, ligand population L2): 1.8 µM
ka1 (heterogeneous ligand model, ligand population L1): 2000 M⁻¹ s⁻¹
ka2 (heterogeneous ligand model, ligand population L2): 16000 M⁻¹ s⁻¹
kd1 (heterogeneous ligand model, ligand population L1): 0.0011 s⁻¹
kd2 (heterogeneous ligand model, ligand population L2): 0.028 s⁻¹
B1: Human S100P protein (wild-type) (natural protein)
chain: MTELETAMGMIIDVFSRYSGSEGSTQTLTKGELKVLMEKELPGFLQSGKDKDAVDKLLKDLDANGDAQVDFSEFIVFVAAITSACHKYFEKAGL
